Values quoted from earlier work, collected in article PMC9249222.

What was measured:
PAIP PAM2 (Homo sapiens) = PAIP PAM2 (Homo sapiens) (UniProt Q9H074)
[1] = target: UBR5 HECT PAM2L (Homo sapiens) (UniProt O95071)

Chain of UBR5 MLLE (O95071 2377-2454): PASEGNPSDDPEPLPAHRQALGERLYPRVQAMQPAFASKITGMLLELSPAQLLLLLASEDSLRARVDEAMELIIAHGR
Chain of PAIP PAM2 (Homo sapiens) (Q9H074 116-143): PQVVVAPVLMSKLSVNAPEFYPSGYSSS

- Kd (PAIP PAM2 (Homo sapiens)): 3.4 µM
- Kd [1]: 50 µM
Substance: UBR5 MLLE (from UniProt O95071)
